Experimental data from US20250034266A1 (ZAI LAB SHANGHAI, published 2025).
Numbering of substitutions follows the chain as printed. Numbers in names are those of the source. Like-named read-outs stand apart in the source and are kept apart here. Values belong to the binder of their own block, whether it stands above or below them.

Key:
human CCR8 [1] = biological target: T1, human CCR8 (human, UniProt P51685 1-355); test: cell-based or functional assay
T1 sequence (P51685 whole entry): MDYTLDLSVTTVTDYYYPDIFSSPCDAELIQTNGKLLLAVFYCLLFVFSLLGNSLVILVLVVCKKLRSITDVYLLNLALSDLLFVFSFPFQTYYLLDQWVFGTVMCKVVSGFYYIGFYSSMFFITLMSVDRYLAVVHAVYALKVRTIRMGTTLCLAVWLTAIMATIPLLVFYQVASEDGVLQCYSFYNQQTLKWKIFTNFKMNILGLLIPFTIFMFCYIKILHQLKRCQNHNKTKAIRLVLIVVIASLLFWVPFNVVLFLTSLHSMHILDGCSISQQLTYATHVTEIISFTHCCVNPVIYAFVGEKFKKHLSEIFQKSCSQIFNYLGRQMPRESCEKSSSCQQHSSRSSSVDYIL

human CCR8 [2] = biological target: T1, human CCR8; test: flow cytometry on TALL-1 cells (endogenous CCR8)
Description: Briefly, a total of 5×10⁴ cells for each well were seeded in 96-well plates and washed with FACS buffer (DPBS containing 1.5% FBS) for once. Antibodies were prepared with 3-fold serial dilution ranging from 100 nM to 0.00508 nM in FACS buffer. Cells were incubated with 50 μL of diluted antibodies at 4° C. for 40 minutes. After primary antibody incubation, cells were washed twice by FACS buffer. Then, cells were stained by Alexa Flu647-labeled anti-human IgG Fc secondary antibody (Jackson ImmunoResearch, #109606170) at 1:500 dilution in FACS buffer for 40 minutes at 4° C. After 2 times wash with FACS buffer, flow cytometry (BD FACS Celesta) was performed to measure the binding affinities of antibodies.

[3] = biological target: human CCR8 tagged with ProLink (PK) (human, UniProt P51685 1-355); test: cell-based or functional assay
human CCR8 [4] = biological target: T1, human CCR8; test: cell-based or functional assay; remark: listed apart in the source
human CCR8 [5] = biological target: T1, human CCR8; test: cell-based or functional assay; remark: listed apart in the source
human CCR8 [6] = biological target: T2, human CCR8 (human, UniProt P51685 1-355); test: FACS, competition with CCL1 on CHO-K1-human CCR8 cells
T2 construct: whole, on cells; also called hCCR8
T2 sequence (P51685 whole entry): as above

human CCR8 [7] = biological target: T2, human CCR8; test: cell-based or functional assay; remark: listed apart in the source
human CCR8 [8] = biological target: T2, human CCR8; test: FACS on CHO-K1-human CCR8 cells
cynomolgus CCR8 [9] = biological target: T3, cynomolgus CCR8 (cynomolgus, UniProt G7NYJ2 1-355); test: FACS on HEK293-cynomolgus CCR8 cells
T3 construct: whole, on cells

human CCR8 [10] = biological target: T2, human CCR8; test: FACS on HuT78 cells (endogenous human CCR8)
human CCR8 [11] = biological target: T2, human CCR8; test: cell-based or functional assay; remark: listed apart in the source
human CCR8 [12] = biological target: T2, human CCR8; test: FACS, competition with CCL1 on CHO-K1-human CCR8 cells; remark: listed apart in the source
human CCR8 [13] = biological target: T2, human CCR8; test: FACS on HuT78 cells (endogenous human CCR8); remark: listed apart in the source
Description: HuT78 cells expressing endogenous human CCR8 were used for determining binding affinities of selected affinity matured anti-CCR8 antibodies. Briefly, a total of […] cells for each well were seeded in 96-well plates and washed with FACS buffer (DPBS containing […]) for once. […] Cells were incubated with 50 μL of diluted antibodies at 4° C. for 1 hour. After primary antibody incubation, cells were washed for 3 times by FACS buffer. Then, cells were stained by Alexa Fbu647 labeled anti-human IgG secondary antibody (Jackson ImmunoResearch, #109606170) at 1:600 dilution in FACS buffer for 0.5 hour at 4° C. After 3 times washed, flow cytometry (Sartourius, iQue3) was performed to measure the binding affinities of antibodies. […]

cynomolgus CCR8 [14] = biological target: T3, cynomolgus CCR8; test: FACS on HEK293-cynomolgus CCR8 cells; remark: listed apart in the source
human CCR8 [15] = biological target: T2, human CCR8; test: FACS on CHO-K1-human CCR8 cells; remark: listed apart in the source
human CCR8 [16] = biological target: T2, human CCR8; test: cell-based or functional assay; remark: listed apart in the source

T3 sequence (G7NYJ2 entry or part of it): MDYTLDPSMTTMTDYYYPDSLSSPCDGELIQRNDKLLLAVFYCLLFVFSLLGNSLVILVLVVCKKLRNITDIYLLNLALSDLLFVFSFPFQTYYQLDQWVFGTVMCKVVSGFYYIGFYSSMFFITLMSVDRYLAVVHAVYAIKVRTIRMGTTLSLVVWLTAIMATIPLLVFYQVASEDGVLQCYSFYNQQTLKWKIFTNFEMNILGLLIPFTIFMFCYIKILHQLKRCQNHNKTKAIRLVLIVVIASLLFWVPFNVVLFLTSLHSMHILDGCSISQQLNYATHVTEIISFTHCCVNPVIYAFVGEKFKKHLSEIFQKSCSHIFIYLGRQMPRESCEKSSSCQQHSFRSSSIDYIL
human CCR8 tagged with ProLink (PK), sequence (P51685 whole entry): as the sequence (P51685 whole entry) above

B3: Hu149-11 (antibody, human IgG1)
heavy: not shown
VL: DIVMTQSPLSLPVTPGEPASISCRSSKSLLHSNANTYLYWFLQKPGQSPQLLIYRMSNLASGVPDRFSGSGSGTDFTLKISRVEAEDVGVYYCMQHLEYPLTFGGGTKVELK
notes: also called Hu149-11G1
IC50 (human CCR8 [6]): 0.283 nM | Max Inhibition (%) (human CCR8 [6]): 99.5% | IC50, blocking of cell migration induced by CCL1 (human CCR8 [7]): 0.849 nM | EC50 (human CCR8 [8]): 0.0797 nM | Max MFI (human CCR8 [8]): 648000 MFI | EC50 (cynomolgus CCR8 [9]): 0.137 nM | Max MFI (cynomolgus CCR8 [9]): 4.6e+06 MFI | EC50 (human CCR8 [10]): 0.735 nM | Max MFI (human CCR8 [10]): 57900 MFI | IC50, inhibition of CCL1 induced β-Arrestin recruitment (human CCR8 [11]): 0.8 nM | Max Inhibition (%), CCL1 induced β-Arrestin recruitment (human CCR8 [11]): 85.2% | IC50 (human CCR8 [12]): 0.0988 nM | Max Inhibition (%) (human CCR8 [12]): 100% | EC50 (human CCR8 [13]): 0.278 nM | Max MFI (human CCR8 [13]): 30200 MFI | EC50 (cynomolgus CCR8 [14]): 0.262 nM | Max MFI (cynomolgus CCR8 [14]): 4.48e+06 MFI | EC50 (human CCR8 [15]): 0.158 nM | Max MFI (human CCR8 [15]): 210000 MFI

B5: Hu149-4-mIgG2a (antibody, V domains shown)
VH: EVQLVESGGGLVQPGGSLKLSCAASGFTFNTYAMNWVRQASGKGLEWVGRIRSKSNFYATYYAASVKGRFTISRDDSKNTAYLQMNSLKTEDTAVYYCTRGRDYGSSYAMDYWGQGTLVTVSS
VL: B3 VL
IC50, blocking of CCL1 induced cell migration (human CCR8 [16]): 2.95 nM

Other lines, results leading:

EC50, ADCC with human PBMCs (LDH release), target TALL-1 cells (human CCR8 [1]): 0.553 nM | EC50 (human CCR8 [2]): 0.461 nM
B1: TPP21360 (antibody, V domains shown)
VH: EVQLLESGGGLVQPGGSLRLSCAASGFTFSSYGMHWVRQAPGKGLEWVSAINWNGGSTGYADSVKGRFTISRDNSKNTLYLQMNSLRAEDTAVYYCARGHHSGYDGRFFDYWGQGTLVTVSS
VL: QSVLTQPPSVSGAPGQRVTISCTGSSSNIGAGYNVHWYQQLPGTAPKLLIYTNNRRPSGVPDRFSGSKSGTSASLAISGLRSEDEADYYCAAWDASLSGWVFGGGTKLTVLG

EC50, ADCC with human PBMCs (LDH release), target TALL-1 cells (human CCR8 [1]): 0.000682 nM | IC50, inhibition of CCL1 induced β-Arrestin recruitment, CHO-K1-human CCR8 β-Arrestin cells [3]: 2.09 nM | EC50, ADCC reporter, F variant CD16a/NFAT-Jurkat, target CHO-K1-human CCR8 cells (human CCR8 [4]): 5.6 pM | EC50, ADCC reporter, F variant CD16a/NFAT-Jurkat, target HuT78 cells (human CCR8 [4]): 0.0164 nM | EC50, ADCC reporter, V variant CD16a/NFAT-Jurkat, target CHO-K1-human CCR8 cells (human CCR8 [4]): 7.25 pM | EC50, ADCC reporter, V variant CD16a/NFAT-Jurkat, target HuT78 cells (human CCR8 [4]): 0.0203 nM | Max (RLU), ADCC reporter, F variant CD16a/NFAT-Jurkat, target CHO-K1-human CCR8 cells (human CCR8 [4]): 8.28e+06 RLU | Max (RLU), ADCC reporter, F variant CD16a/NFAT-Jurkat, target HuT78 cells (human CCR8 [4]): 1.59e+07 RLU | Max (RLU), ADCC reporter, V variant CD16a/NFAT-Jurkat, target CHO-K1-human CCR8 cells (human CCR8 [4]): 3.93e+06 RLU | Max (RLU), ADCC reporter, V variant CD16a/NFAT-Jurkat, target HuT78 cells (human CCR8 [4]): 8.7e+06 RLU | EC50 (human CCR8 [2]): 0.328 nM | EC50, ADCC with human PBMCs, target CHO-K1-human CCR8 cells (human CCR8 [5]): 0.085 pM | Max specific lysis (%), ADCC with human PBMCs, target CHO-K1-human CCR8 cells (human CCR8 [5]): 46.6%
B2: Hu149-11G1m (antibody, human IgG1)
heavy: EVQLVESGGGLVQPGGSLKLSCAASGFTFNTYAMNWVRQASGKGLEWVGRIRSKSNFYATAYAASVKGRFTISRDDSKNTAYLQMNSLKTEDTAVYYCTRGREYGSSYAMDYWGQGTLVTVSSASTKGPSVFPLAPSSKSTSGGTAALGCLVKDYFPEPVTVSWNSGALTSGVHTFPAVLQSSGLYSLSSVVTVPSSSLGTQTYICNVNHKPSNTKVDKKVEPKSCDKTHTCPPCPAPELVGGPSVFLLPPKPKDTLMISRTPEVTCVVVDVSHEDPEVKFNWYVDGVEVHNAKTKPPEEQYNSTLRVVSVLTVLHQDWLNGKEYKCKVSNKALPAPIEKTISKAKGQPREPQVYTLPPSRDELTKNQVSLTCLVKGFYPSDIAVEWESNGQPENNYKTTPLVLDSDGSFFLYSKLTVDKSRWQQGNVFSCSVMHEALHNHYTQKSLSLSPGK
VL: B3 VL
notes: also called Hu149-11G1m (ADCC enhanced variant with L235V/F243L/R292P/Y300L/P396L Fc mutations)

IC50, inhibition of CCL1 induced β-Arrestin recruitment, CHO-K1-human CCR8 β-Arrestin cells [3]: 1.16 nM | EC50, ADCC reporter, F variant CD16a/NFAT-Jurkat, target CHO-K1-human CCR8 cells (human CCR8 [4]): 4.05 pM | EC50, ADCC reporter, F variant CD16a/NFAT-Jurkat, target HuT78 cells (human CCR8 [4]): 0.00869 nM | EC50, ADCC reporter, V variant CD16a/NFAT-Jurkat, target CHO-K1-human CCR8 cells (human CCR8 [4]): 5.6 pM | EC50, ADCC reporter, V variant CD16a/NFAT-Jurkat, target HuT78 cells (human CCR8 [4]): 0.0114 nM | Max (RLU), ADCC reporter, F variant CD16a/NFAT-Jurkat, target CHO-K1-human CCR8 cells (human CCR8 [4]): 8.18e+06 RLU | Max (RLU), ADCC reporter, F variant CD16a/NFAT-Jurkat, target HuT78 cells (human CCR8 [4]): 1.48e+07 RLU | Max (RLU), ADCC reporter, V variant CD16a/NFAT-Jurkat, target CHO-K1-human CCR8 cells (human CCR8 [4]): 3.94e+06 RLU | Max (RLU), ADCC reporter, V variant CD16a/NFAT-Jurkat, target HuT78 cells (human CCR8 [4]): 8.64e+06 RLU | EC50, ADCC with human PBMCs, target CHO-K1-human CCR8 cells (human CCR8 [5]): 0.136 pM | Max specific lysis (%), ADCC with human PBMCs, target CHO-K1-human CCR8 cells (human CCR8 [5]): 44.2%
B4: Hu149-12G1m (antibody, human IgG1)
heavy: B2 heavy with R102K
VL: B3 VL
